According to publication PMC5898196 (Science (New York, N.Y.), 2017):

Target: the molecule itself
Test: cryo-EM structure

B1: Recombinant full-length human TRPM4 (hTRPM4b) (natural protein)
chain: not shown
modifications: glycan at Asn992
In the case of B1, the “stoichiometry N” value is reported as 4.
